By stoichiometry N is commonly meant a count of units in the complex or per binding partner.

Common to all, as to test: cryo-EM structure; single-particle cryoEM of the icosahedral head of purified BPP-1 virions, frozen hydrated; 50 mM Tris-HCl, 250 mM NaCl, 1 mM MgCl2, pH7.5; ~3.5 Å (capsid), ~3.4 Å (averaged CP and MCP)
Assay [1] has as its target cement protein (CP) Bbp16 of bacteriophage BPP-1 (Bordetella bacteriophage BPP-1).
In assay [2] the target is major capsid protein (MCP) Bbp17 of bacteriophage BPP-1 (Bordetella bacteriophage BPP-1).
For assay [3] the target is unchanged. The source holds these as a separate data set.

Read-outs that look alike come from different tables or passages of the source.

In the case of “cement protein (CP) Bbp16 of bacteriophage BPP-1 (natural protein)”, the stoichiometry N in assay [1] stood at 2. Consider “major capsid protein (MCP) Bbp17 of bacteriophage BPP-1 (natural protein)”, for which the stoichiometry N in assay [2] worked out at 6; in assay [3] it was 5.
